Assay results as given in patent US20120184485A1.

How the values were obtained:
scavenger receptor CD36 [1] = assay: flow cytometry on CD36-transfected CHO cells, rAv17 at 2.5 µg/ml; baseline 20%
scavenger receptor CD36 [2] = assay: flow cytometry on CD36-transfected CHO cells, rAv17 at 5 µg/ml; baseline 20%

Substance: recombinant Acanthocheilonema viteae cystatin (rAv17)
- fluorescence positive cells (scavenger receptor CD36 [1]): 71%
- fluorescence positive cells (scavenger receptor CD36 [2]): 89%
